Results taken from paper PMC3882236, “A Neutralization Epitope in the Hepatitis C Virus E2 Glycoprotein Interacts with Host Entry Factor CD81” (PLoS ONE, 2014).

How the values were obtained:
Assay in all cases: luciferase-based plate binding assay; supernatant (100 uL/well) with E2-16Fc or a mutant form held on protein A-coated 96-well plates, room temperature, 1 h; PBS-T wash; CD81-Luc supernatant (2.5x10^6 units of luciferase activity in 30 uL) added for 1 h, with or without 1H8 (10 or 50 ug/reaction); PBS-T rinse; bound luciferase activity read
Conditions in all cases: partners not purified
[1] = target: T1, E2-16Fc T526A (Hepatitis C virus genotype 1a, H77 …, UniProt P27958 384-661, T526A)
T1 construct: HCV envelope glycoprotein E2, residues 384-661, HCV genotype 1a H77 strain, single site mutant of E2-16Fc; Same construct as m1 with one substitution; source: Huh7, transiently transfected, secreted into the cell culture medium (supernatant)

[2] = target: T2, E2-16Fc W529A (Hepatitis C virus genotype 1a, H77 …, UniProt P27958 384-661, W529A)
T2 construct: HCV envelope glycoprotein E2, residues 384-661, HCV genotype 1a H77 strain, single site mutant of E2-16Fc; Same construct as m1 with one substitution; source: Huh7, transiently transfected, secreted into the cell culture medium (supernatant)

[3] = target: T3, E2-16Fc Y527A (Hepatitis C virus genotype 1a, H77 …, UniProt P27958 384-661, Y527A)
T3 construct: HCV envelope glycoprotein E2, residues 384-661, HCV genotype 1a H77 strain, single site mutant of E2-16Fc; Same construct as m1 with one substitution; source: Huh7, transiently transfected, secreted into the cell culture medium (supernatant)

B1: CD81-Luc (large extracellular domain of human CD81, residues 113-201, fused with gaussia luciferase) (domain or fragment, UniProt P60033 113-201, looked up)
chain: FVNKDQIAKDVKQFYDQALQQAVVDDDANNAKAVVKTFHETLDCCGSSTLTALTTSVLKNNLCPSGSNIISNLFKEDCHQKIDDLFSGK
notes: human CD81, large extracellular domain, residues 113-201; source: Huh7, transiently transfected, secreted into the cell culture medium (supernatant)
percent reduction of binding compared to the wild-type E2-16Fc [1]: 83.1% | percent reduction of binding compared to the wild-type E2-16Fc [2]: 99.2% | percent reduction of binding compared to the wild-type E2-16Fc [3]: 98.4%
